These are literature values, as cited in article PMC10564622.

Usually Kd stands for the equilibrium constant for the complex coming apart.

Where two headings read alike, the source gives them in different places.

Series [1] deals with CUL3 NTD (Homo sapiens) (UniProt Q13618).
For series [2] the target is unchanged. This is another data set of the same source.
For series [3], the target named is CUL3 NTD with N-terminal deletion (Homo sapiens) (UniProt Q13618).
Sequence of CUL3 NTD with N-terminal deletion (Homo sapiens) (Q13618 20-381, stated change not applied): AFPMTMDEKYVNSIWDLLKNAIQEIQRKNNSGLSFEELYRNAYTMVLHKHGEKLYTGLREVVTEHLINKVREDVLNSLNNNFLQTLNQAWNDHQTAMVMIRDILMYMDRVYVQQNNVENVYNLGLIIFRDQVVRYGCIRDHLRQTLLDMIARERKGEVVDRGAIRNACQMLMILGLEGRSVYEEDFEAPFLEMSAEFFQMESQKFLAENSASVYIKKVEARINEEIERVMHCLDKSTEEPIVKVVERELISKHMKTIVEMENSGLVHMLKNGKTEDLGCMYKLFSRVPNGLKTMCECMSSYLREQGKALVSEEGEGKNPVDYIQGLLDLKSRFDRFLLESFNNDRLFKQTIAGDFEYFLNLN

Sequence of CUL3 NTD (Homo sapiens) (Q13618 20-381): as the sequence (Q13618 20-381, stated change not applied) above
Sequence of SPOP BTB (O43791 170-300): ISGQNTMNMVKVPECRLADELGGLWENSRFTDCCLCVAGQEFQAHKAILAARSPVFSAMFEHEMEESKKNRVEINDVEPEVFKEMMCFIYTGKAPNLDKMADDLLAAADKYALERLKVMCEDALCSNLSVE
Sequence of KLHL3 BTB-BACK (Q9UH77 24-276): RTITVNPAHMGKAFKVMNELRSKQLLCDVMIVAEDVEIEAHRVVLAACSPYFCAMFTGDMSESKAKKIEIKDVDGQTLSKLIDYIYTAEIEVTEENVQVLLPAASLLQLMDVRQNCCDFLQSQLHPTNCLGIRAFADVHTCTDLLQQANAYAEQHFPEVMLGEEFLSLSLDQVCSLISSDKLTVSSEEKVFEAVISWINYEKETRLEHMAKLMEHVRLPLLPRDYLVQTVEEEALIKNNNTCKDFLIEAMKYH
Sequence of SPOP BTB-3-box (O43791 177-319): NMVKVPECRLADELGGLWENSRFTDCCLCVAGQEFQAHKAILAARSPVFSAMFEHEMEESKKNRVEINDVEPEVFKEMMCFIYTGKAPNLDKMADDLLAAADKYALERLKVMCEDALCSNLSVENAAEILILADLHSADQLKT

On to SPOP BTB-3-box (from UniProt O43791), for which, in series [1], the Kd is 17 nM.

For the substance SPOP BTB (from UniProt O43791), in series [2], the Kd is 1000 nM.

For KLHL3 BTB-BACK (from UniProt Q9UH77), the dissociation constant Kd in series [3] is 110 nM.
